Results: patent publication US20050100554A1 (published 2005)

B1: soggy-1 gene (other)
chain: APIHDADAQESSLGLTGLQSLLQGFSRLFLKGNLLRGIDSLFSAPMDFRGLPGNYHKEENQEHQLGNNTLSSHLQIDKMTDNKTGEVLISENVVASIQPAEGSFEGDLKVPRMEEKEALVPIQKATDSFHTELHPRVAFWIIKLPRRRSHQDALEGGHWLSEKRHRLQAIRDGLRKGTHKDVLEEGTESSSHSRLSPRKTHLLYILRPSRQL
notes: also called DKKL1-pending; cbe_4279962
B2: Human papillomavirus 16 E7 (other)
chain: MHGDTPTLHEYMLDLQPETTDLYCYEQLNDSSEEEDEIDGPAGQAEPDRAHYNIVTFCCKCDSTLRLCVQSTHVDIRTLEDLLMGTLGIVCPICSQKP
notes: also called HPV 16 E7; HPV16 E7
B3: Human papillomavirus 16 E2 (other)
chain: METLCQRLNVCQDKILTHYENDSTDLRDHIDYWKHMRLECAIYYKAREMGFKHINHQVVPTLAVSKNKALQAIELQLTLETIYNSQYSNEKWTLQDVSLEVYLTAPTGCIKKHGYTVEVQFDGDICNTMHYTNWTHIYICEEASVTVVEGQVDYYGLYYVHEGIRTYFVQFKDDAEKYSKNKVWEVHAGGQVILCPTSVFSSNEVSSPEIIRQHLANHPAATHTKAVALGTEETQTTIQRPRSEPDTGNPCHTTKLLHRDSVDSAPILTAFNSSHKGRINCNSNTTPIVHLKGDANTLKCLRYRFKKHCTLYTAVSSTWHWTGHNVKHKSAIVTLTYDSEWQRDQFLSQVKIPKTITVSTGFMSI
notes: also called HPV 16 E2; cbe_251088
B4: DAD1 (other)
chain: SASVVSVISRFLEEYLSSTPQRLKLLDAYLLYILLTGALQFGYCLLVGTFPFNSFLSGFISCVGSFILAVCLRIQINPQNKADFQGISPERAFADFLFASTILHLVVMNFVG
notes: also called cbe_4268208
B5: eukaryotic translation elongation factor 1 alpha 1-like 14 (other)
chain: MQSERGITIDISLWKFETSKYYVTIIDAPGHRDFIQNMITGTSQADCAVLIVAAGVGEFEAGISKNGQTREHALLAYTLGVKQLIVGVNKMDSTEPPYSQKRYEEIVKEVSTYIKKIGYNPDTVAFVPISGWNGDNMLEPSANMPWFKGWKVTRKDGNASGTTLLEALDCILPPTRPTDKPLGLPLQDVYKIGGIGTVPVGRVETGVLKPGMVVTFGPVNVTTEVKSVEMHHEALGEALPGDNVGFNVKNVSVKDVRRGNVAGDSKNDPPMEAAGFPAQVIILNHPGQISAGYAPVLDCHTAHIACKFAELKEKIDRRSGKKLEDGPKFLKSGDAAIVDMVPGKPMCVESFSDYPPLGCFAVRDMRQTVAVGVIKAVDKKAAGAGKVTKSAQKAQKAK
notes: also called EEF1A1L14; cbe_3773649

Experiments:
[1] = target: B3; test: Y2H; INT ID 151
[2] = target: T1, tissue factor pathway inhibitor (lipoprotein-associated coagulation inhibitor) (human, UniProt P10646 29-304); test: Y2H; INT ID 172
T1 construct: also called TFPI; cbe_3834015
T1 sequence: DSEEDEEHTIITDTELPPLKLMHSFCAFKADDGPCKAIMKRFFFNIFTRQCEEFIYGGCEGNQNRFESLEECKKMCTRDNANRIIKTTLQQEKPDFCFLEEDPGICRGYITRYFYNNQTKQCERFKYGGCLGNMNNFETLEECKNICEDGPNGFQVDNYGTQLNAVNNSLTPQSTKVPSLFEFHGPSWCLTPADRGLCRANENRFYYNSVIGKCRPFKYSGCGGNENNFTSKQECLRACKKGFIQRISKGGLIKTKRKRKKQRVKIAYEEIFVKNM

[3] = target: T2, zinc finger protein ZNF140-like protein (human, UniProt Q9NR11 1-478); test: Y2H; INT ID 170
T2 construct: also called LOC55828; cbe_3787129
T2 sequence (Q9NR11 whole entry): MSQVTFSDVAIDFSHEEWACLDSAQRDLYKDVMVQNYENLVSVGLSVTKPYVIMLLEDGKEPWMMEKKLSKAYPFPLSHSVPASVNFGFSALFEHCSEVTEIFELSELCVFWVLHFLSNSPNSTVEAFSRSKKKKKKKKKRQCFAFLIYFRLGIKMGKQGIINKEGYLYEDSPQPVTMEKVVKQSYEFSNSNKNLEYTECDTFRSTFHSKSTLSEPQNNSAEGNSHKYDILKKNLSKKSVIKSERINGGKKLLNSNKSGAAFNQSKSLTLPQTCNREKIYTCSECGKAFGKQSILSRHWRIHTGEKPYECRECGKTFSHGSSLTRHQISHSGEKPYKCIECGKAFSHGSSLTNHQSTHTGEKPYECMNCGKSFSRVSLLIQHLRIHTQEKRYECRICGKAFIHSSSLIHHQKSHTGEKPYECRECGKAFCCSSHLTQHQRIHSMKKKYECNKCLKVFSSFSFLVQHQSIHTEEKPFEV

[4] = target: T3, PSMC1 (human, UniProt P62191 2-440); test: Y2H; INT ID 179
T3 construct: also called proteosome 26S subunit; proteosome subunit PMSC1
T3 sequence (P62191 2-440 limits assumed): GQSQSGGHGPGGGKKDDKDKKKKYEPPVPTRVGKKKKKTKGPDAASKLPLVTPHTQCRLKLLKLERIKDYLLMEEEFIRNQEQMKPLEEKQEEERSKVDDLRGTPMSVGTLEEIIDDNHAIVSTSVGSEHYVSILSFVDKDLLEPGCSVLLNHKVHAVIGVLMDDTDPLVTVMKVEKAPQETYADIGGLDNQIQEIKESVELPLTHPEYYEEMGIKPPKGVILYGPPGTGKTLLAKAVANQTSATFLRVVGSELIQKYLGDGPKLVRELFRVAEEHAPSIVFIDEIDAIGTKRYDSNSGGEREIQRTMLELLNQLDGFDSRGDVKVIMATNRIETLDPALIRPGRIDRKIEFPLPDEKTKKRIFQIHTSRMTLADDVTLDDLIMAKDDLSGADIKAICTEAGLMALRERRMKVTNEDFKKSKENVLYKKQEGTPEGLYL

[5] = target: T4, PTPN21 (human, UniProt Q16825 1-1174); test: Y2H; INT ID 174
T4 construct: also called cbe_4260642
T4 sequence: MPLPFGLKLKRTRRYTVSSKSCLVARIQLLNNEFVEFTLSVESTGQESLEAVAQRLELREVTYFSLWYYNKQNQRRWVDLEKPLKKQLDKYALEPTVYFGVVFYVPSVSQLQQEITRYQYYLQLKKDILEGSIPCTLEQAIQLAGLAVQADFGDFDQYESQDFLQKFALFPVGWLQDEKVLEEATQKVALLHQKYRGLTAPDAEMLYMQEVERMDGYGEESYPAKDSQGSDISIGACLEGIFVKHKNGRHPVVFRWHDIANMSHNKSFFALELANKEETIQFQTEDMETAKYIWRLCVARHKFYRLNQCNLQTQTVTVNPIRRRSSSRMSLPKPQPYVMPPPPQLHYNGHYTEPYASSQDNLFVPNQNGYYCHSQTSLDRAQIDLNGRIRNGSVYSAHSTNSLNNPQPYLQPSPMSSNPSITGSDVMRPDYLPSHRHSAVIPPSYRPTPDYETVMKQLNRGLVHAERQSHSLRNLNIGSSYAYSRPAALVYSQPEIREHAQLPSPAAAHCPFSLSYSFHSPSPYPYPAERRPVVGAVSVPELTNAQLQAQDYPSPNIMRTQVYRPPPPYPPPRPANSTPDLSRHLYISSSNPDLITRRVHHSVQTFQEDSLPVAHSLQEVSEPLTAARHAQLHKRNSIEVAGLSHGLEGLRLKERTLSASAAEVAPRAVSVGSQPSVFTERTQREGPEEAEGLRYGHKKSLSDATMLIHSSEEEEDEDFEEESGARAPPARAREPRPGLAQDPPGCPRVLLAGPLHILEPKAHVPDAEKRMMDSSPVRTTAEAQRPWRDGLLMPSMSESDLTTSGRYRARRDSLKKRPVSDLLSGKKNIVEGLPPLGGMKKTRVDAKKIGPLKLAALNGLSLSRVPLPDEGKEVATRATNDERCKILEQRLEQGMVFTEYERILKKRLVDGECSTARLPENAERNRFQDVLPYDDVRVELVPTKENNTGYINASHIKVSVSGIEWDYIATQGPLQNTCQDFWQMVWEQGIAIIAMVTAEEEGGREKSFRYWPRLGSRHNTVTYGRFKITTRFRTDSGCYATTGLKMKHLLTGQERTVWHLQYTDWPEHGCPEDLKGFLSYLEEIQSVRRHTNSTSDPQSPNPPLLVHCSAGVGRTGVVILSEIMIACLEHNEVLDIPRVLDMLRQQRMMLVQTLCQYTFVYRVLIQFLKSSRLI

[6] = target: T5, MPP3 (human, UniProt Q13368 1-585); test: Y2H; INT ID 173
T5 construct: also called cbe_3921620
T5 sequence: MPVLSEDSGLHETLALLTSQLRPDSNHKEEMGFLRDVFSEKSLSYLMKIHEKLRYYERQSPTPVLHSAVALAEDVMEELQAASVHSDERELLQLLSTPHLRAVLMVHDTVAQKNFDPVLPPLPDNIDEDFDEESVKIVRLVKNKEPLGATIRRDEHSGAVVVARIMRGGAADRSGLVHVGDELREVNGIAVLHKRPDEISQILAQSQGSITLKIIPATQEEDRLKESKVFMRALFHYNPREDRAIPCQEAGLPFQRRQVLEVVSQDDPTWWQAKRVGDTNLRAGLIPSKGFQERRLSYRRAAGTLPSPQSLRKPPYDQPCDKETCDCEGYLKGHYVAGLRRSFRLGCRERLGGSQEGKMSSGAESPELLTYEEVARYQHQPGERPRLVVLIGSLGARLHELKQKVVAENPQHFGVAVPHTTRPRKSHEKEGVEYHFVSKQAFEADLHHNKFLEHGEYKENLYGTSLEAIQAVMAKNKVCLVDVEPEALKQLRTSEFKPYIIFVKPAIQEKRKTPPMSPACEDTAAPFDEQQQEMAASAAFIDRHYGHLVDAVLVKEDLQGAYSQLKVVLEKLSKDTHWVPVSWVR

[7] = target: T6, NDUFS3 (human, UniProt O75489 37-264); test: Y2H; INT ID 176
T6 construct: also called cbe_4268611
T6 sequence (O75489 37-264 limits assumed): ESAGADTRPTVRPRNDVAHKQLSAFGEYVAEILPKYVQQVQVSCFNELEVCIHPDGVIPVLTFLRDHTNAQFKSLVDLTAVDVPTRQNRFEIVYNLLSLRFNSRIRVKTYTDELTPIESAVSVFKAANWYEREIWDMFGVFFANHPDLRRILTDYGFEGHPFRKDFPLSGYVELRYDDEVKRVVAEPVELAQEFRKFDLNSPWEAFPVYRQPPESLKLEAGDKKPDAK

[8] = target: T7, STX4A (human, UniProt Q12846 1-297); test: Y2H; INT ID 181
T7 construct: also called syntaxin 4; cbe_4270186
T7 sequence: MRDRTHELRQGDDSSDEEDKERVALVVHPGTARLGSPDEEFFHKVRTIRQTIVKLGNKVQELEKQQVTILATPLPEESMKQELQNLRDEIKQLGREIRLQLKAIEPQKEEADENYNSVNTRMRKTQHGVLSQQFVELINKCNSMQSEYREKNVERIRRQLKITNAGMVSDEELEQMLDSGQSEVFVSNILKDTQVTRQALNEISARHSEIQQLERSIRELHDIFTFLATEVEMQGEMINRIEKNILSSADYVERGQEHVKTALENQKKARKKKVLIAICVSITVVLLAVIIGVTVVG

[9] = target: T8, keratin 4 (human, UniProt P19013 1-520); test: Y2H; INT ID 168
T8 construct: also called KRT4; cbe_3474077
T8 sequence (P19013 other isoform, or with tags, fused parts or gaps limits assumed): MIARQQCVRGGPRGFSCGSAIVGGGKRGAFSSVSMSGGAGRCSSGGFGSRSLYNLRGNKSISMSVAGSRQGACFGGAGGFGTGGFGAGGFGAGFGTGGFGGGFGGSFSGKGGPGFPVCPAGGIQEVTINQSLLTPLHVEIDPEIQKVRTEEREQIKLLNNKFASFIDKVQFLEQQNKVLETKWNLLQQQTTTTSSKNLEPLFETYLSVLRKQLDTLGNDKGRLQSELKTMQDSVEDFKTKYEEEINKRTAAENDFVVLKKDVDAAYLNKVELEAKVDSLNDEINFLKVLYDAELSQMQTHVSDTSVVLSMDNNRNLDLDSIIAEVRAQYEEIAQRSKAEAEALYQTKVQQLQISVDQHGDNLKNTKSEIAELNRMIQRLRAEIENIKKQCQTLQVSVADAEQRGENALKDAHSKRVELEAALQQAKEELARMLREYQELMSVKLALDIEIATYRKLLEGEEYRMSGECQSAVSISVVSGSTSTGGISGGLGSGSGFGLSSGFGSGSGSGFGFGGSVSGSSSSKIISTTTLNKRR

[10] = target: T9, Human Papillomavirus 1a L2 (Human Papillomavirus 1a, UniProt P03105 1-507); test: Y2H; INT ID 146
T9 construct: also called HPV 1a L2; cbe_252041
T9 sequence: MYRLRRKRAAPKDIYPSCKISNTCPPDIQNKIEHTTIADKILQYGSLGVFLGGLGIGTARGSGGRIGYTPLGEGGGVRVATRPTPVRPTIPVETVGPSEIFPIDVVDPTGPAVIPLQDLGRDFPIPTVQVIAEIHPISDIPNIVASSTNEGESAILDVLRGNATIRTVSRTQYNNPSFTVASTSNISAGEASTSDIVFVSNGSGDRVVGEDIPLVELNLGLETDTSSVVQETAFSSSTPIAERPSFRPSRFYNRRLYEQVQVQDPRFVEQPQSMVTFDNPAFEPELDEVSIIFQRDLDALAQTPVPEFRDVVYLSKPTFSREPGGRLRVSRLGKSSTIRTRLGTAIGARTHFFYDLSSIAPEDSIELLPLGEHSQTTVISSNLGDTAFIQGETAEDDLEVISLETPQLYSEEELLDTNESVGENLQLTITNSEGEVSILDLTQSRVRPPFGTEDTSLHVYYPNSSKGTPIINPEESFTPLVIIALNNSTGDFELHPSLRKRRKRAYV

[11] = target: T10, EFEMP1 (human, UniProt Q12805 18-493); test: Y2H; INT ID 147
T10 construct: also called cbe_2321057
T10 sequence: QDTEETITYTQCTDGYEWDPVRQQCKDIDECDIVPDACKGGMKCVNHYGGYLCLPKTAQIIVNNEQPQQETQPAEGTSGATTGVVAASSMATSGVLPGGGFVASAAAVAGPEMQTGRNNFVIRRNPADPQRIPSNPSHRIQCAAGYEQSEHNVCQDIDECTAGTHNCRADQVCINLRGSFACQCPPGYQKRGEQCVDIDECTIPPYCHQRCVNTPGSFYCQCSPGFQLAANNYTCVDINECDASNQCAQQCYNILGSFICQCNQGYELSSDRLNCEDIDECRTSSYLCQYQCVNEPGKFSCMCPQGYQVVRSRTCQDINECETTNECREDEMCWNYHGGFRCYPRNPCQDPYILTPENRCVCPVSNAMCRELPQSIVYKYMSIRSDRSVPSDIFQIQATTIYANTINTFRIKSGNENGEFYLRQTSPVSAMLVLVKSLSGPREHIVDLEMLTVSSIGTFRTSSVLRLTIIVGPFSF

[12] = target: B3; test: Y2H; INT ID 150
[13] = target: B2; test: Y2H; INT ID 169

B1
binding result [1]: binds

B2
binding result [2]: binds
binding result [3]: binds
binding result [4]: binds
binding result [5]: binds
binding result [6]: binds
binding result [7]: binds
binding result [8]: binds
binding result [9]: binds

B3
binding result [10]: binds
binding result [11]: binds

B4
binding result [12]: binds

B5
binding result [13]: binds
